Test results reported in patent US20080227720A1 (MOREHOUSE SCHOOL OF MEDICINE, published 2008).

Biological target: CXCR4 receptor (human, UniProt P61073 1-352)
Test: cell-based or functional assay

Chain of CXCR4 receptor (P61073 whole entry): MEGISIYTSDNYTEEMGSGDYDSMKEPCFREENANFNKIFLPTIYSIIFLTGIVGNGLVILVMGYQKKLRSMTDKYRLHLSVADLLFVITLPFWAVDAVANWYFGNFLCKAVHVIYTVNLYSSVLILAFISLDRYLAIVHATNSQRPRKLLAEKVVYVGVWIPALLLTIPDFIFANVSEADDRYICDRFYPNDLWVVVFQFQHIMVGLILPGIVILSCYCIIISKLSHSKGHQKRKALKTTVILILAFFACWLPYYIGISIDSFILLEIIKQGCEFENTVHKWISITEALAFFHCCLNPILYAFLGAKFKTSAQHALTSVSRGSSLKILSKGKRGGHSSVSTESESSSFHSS

Binder | apoptosis relative to the full gp 120 protein at an equivalent molar ratio | apoptosis relative to the full Nef protein at an equivalent molar ratio
GRAFYTTKY [Gp120 9 mer peptide spanning amino acids 315-324 (GRAFYTTKY)] | ~60 % of the apoptosis observed from the full gp 120 protein | 
NAACAWLEAQ [Nef 10 mer peptide spanning the 50-60 motif (NAACAWLEAQ)] |  | ~100 % of the apoptosis observed for the full Nef protein
